In this test the target is Oligomeric recombinant human Aβ1-42 (human, UniProt P05067). The test is described as follows: co-IP.

B1: ATP6V0C subunit of V-ATPase from mouse brain (natural protein)
chain: MADIKNNPEYSSFFGVMGASSAMVFSAMGAAYGTAKSGTGIAAMSVMRPELIMKSIIPVVMAGIIAIYGLVVAVLIANSLTDGITLYRSFLQLGAGLSVGLSGLAAGFAIGIVGDAGVRGTAQQPRLFVGMILILIFAEVLGLYGLIVALILSTK
In the case of B1, the binding result is “binds”.

Values taken from article PMC10351450 (Autophagy, 2023).
